This is an account of results in patent US20140243256A1 (ADMINISTRATORS OF THE TULANE EDUCATIONAL FUND, published 2014).

The test addresses T1, Pichinde virus (PICV) glycoprotein spikes on purified virus (Pichinde virus (CoAn 3739), UniProt P03540 59-273; P03540 2-58).
T1 construct: also called monomeric or oligomeric glycoproteins; GPC
T1 sequence 1: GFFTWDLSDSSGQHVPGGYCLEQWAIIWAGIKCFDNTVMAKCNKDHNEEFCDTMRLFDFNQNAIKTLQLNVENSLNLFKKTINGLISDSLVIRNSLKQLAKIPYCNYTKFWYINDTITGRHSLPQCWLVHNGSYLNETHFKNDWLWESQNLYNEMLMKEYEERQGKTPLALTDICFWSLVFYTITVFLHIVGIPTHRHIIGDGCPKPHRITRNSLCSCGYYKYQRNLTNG
T1 sequence 2: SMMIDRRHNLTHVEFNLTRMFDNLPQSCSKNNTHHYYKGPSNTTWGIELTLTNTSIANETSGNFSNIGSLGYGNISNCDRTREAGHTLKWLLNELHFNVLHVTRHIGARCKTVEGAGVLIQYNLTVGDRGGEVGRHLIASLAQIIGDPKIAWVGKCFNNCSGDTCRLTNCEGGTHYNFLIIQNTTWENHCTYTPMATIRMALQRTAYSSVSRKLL
T1 sequence 3: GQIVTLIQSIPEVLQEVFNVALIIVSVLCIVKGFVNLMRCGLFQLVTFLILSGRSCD
Briefly: glutaraldehyde crosslinking of PICV with peptide.

For the molecule LNLFKKTINGLISDSLVIR (TAMRA conjugated (position of the dye not stated), also called TAMRA-peptide) [TAMRA-conjugated Peptide 1], the binding result is listed as “no binding”.
